Measured values from US20080220446.

T1: alkyl-β2gpi (reduced and alkylated β2-glycoprotein I), P02749
T1 chain: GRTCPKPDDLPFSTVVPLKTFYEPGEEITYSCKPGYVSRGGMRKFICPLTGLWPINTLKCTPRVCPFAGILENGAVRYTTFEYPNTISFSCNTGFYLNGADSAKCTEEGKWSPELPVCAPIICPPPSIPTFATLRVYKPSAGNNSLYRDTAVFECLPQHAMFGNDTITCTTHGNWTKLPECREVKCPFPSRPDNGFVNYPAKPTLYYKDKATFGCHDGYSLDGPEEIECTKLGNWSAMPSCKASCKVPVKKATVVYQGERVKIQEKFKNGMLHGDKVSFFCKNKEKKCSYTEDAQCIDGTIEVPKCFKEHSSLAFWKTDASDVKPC

T2: recombinant human β2-glycoprotein I (insect cells), P02749
T2 chain: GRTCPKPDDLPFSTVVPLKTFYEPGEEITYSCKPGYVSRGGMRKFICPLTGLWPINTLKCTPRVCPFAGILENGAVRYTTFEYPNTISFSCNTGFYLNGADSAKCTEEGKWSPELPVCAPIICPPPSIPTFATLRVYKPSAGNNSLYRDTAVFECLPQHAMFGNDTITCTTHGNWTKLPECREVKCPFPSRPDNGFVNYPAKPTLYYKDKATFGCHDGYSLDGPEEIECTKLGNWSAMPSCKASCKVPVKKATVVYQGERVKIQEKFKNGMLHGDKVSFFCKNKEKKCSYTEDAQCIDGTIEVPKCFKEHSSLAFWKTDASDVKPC

T3: β2GPI purified from fresh human plasma, P02749
T3 chain: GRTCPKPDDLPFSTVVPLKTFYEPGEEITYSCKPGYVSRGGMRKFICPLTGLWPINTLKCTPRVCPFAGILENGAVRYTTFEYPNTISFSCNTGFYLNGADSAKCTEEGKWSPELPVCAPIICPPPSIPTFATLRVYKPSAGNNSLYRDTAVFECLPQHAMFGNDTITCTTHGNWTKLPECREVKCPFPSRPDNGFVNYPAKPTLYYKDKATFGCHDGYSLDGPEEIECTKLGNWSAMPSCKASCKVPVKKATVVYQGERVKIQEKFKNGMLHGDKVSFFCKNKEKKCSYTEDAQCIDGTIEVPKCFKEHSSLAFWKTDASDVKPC

T4: β2GPI exposed to cardiolipin (CL), P02749
T4 chain: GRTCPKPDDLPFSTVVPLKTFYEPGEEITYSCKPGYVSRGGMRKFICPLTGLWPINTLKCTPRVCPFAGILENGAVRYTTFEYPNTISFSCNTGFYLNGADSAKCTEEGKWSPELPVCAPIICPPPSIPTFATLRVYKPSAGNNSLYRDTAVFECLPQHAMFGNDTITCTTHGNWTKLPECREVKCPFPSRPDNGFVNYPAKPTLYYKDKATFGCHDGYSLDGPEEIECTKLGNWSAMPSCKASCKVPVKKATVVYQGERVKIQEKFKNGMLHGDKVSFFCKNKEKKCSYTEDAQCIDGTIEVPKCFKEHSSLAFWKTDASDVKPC


Legend:
[1] = biological target: human modified gelatin (Gelofusine)
[2] = biological target: amyloid γ-globulins (denatured human γ-globulins)
[3] = biological target: T1, alkyl-β2gpi (reduced and alkylated …)
[4] = biological target: T2, recombinant human β2-glycoprotein I …
[5] = biological target: endostatin (EntreMed, Inc.), P39060
Chain of endostatin (EntreMed, Inc.), P39060 (P39060 whole entry, looked up): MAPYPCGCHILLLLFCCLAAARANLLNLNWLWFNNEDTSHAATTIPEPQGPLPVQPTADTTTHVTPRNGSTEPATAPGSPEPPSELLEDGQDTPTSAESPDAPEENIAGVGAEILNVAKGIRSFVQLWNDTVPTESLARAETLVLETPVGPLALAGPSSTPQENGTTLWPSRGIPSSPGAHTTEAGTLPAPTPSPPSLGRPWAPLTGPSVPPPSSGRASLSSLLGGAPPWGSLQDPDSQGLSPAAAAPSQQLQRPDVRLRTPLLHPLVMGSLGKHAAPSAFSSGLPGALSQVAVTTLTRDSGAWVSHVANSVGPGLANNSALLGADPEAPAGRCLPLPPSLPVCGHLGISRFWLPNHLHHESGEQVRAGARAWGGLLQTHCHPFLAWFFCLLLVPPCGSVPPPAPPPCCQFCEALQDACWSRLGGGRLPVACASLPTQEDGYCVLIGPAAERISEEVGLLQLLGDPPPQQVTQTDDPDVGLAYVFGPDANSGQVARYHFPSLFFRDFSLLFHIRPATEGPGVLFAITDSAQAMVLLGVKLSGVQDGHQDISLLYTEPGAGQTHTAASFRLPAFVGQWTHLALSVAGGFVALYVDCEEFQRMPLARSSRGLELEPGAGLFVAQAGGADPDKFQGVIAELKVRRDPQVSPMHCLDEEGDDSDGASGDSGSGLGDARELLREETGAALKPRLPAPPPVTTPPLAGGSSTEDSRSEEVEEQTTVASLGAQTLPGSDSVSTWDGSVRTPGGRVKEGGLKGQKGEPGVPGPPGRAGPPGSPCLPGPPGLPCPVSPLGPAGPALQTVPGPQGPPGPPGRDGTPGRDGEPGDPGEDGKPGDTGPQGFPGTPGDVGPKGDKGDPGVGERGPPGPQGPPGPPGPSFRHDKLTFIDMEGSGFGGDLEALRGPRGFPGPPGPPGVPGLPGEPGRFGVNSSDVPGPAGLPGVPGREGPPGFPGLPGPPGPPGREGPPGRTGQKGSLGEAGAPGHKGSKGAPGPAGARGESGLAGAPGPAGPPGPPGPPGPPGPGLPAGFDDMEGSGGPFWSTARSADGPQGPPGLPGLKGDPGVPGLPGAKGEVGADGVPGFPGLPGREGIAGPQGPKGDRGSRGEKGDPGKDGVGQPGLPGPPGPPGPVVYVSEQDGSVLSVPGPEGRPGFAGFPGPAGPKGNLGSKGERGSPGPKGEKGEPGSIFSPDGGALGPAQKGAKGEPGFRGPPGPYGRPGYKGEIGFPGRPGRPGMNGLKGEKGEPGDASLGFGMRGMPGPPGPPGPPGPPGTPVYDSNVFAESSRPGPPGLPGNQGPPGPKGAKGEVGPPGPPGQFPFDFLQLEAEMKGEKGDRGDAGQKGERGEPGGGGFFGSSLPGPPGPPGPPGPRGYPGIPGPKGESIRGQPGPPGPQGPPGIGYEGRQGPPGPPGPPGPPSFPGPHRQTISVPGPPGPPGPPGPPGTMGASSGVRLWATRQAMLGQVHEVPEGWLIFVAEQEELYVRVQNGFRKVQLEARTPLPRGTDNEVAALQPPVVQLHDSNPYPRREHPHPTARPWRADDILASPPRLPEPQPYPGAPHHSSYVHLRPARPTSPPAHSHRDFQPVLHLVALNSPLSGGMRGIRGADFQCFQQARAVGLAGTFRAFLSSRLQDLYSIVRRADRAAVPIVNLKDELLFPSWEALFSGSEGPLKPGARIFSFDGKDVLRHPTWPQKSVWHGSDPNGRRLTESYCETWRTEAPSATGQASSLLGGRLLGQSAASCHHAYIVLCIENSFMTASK

[6] = biological target: heat/acid-denatured human glucagon, P01275
Chain of heat/acid-denatured human glucagon, P01275 (P01275 53-81): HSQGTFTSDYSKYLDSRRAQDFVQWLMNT

[7] = biological target: native murine serum albumin (nMSA), P07724
Chain of native murine serum albumin (nMSA), P07724 (P07724 25-608): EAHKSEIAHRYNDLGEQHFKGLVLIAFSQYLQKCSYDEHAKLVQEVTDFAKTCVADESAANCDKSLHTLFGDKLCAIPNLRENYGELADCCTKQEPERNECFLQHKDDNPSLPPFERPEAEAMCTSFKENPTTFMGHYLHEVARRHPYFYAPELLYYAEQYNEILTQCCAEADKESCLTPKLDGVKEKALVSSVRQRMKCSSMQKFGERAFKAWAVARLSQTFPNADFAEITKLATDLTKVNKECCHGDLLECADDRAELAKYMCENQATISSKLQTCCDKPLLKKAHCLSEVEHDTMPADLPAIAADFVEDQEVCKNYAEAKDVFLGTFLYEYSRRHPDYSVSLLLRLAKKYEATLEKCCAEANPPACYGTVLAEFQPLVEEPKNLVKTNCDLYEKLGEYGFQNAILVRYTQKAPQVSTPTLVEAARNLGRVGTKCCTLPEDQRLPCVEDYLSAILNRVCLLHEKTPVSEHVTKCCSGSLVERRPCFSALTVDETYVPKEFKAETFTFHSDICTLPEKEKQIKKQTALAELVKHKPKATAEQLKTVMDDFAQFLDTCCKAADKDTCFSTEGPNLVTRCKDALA

[8] = biological target: human glucagon (Glucagen), freshly dissolved, P01275
[9] = biological target: T3, β2GPI purified from fresh human plasma, …
[10] = biological target: human coagulation factor VIII (FVIII) (Aafact), P00451
Chain of human coagulation factor VIII (FVIII) (Aafact), P00451 (P00451 whole entry, looked up): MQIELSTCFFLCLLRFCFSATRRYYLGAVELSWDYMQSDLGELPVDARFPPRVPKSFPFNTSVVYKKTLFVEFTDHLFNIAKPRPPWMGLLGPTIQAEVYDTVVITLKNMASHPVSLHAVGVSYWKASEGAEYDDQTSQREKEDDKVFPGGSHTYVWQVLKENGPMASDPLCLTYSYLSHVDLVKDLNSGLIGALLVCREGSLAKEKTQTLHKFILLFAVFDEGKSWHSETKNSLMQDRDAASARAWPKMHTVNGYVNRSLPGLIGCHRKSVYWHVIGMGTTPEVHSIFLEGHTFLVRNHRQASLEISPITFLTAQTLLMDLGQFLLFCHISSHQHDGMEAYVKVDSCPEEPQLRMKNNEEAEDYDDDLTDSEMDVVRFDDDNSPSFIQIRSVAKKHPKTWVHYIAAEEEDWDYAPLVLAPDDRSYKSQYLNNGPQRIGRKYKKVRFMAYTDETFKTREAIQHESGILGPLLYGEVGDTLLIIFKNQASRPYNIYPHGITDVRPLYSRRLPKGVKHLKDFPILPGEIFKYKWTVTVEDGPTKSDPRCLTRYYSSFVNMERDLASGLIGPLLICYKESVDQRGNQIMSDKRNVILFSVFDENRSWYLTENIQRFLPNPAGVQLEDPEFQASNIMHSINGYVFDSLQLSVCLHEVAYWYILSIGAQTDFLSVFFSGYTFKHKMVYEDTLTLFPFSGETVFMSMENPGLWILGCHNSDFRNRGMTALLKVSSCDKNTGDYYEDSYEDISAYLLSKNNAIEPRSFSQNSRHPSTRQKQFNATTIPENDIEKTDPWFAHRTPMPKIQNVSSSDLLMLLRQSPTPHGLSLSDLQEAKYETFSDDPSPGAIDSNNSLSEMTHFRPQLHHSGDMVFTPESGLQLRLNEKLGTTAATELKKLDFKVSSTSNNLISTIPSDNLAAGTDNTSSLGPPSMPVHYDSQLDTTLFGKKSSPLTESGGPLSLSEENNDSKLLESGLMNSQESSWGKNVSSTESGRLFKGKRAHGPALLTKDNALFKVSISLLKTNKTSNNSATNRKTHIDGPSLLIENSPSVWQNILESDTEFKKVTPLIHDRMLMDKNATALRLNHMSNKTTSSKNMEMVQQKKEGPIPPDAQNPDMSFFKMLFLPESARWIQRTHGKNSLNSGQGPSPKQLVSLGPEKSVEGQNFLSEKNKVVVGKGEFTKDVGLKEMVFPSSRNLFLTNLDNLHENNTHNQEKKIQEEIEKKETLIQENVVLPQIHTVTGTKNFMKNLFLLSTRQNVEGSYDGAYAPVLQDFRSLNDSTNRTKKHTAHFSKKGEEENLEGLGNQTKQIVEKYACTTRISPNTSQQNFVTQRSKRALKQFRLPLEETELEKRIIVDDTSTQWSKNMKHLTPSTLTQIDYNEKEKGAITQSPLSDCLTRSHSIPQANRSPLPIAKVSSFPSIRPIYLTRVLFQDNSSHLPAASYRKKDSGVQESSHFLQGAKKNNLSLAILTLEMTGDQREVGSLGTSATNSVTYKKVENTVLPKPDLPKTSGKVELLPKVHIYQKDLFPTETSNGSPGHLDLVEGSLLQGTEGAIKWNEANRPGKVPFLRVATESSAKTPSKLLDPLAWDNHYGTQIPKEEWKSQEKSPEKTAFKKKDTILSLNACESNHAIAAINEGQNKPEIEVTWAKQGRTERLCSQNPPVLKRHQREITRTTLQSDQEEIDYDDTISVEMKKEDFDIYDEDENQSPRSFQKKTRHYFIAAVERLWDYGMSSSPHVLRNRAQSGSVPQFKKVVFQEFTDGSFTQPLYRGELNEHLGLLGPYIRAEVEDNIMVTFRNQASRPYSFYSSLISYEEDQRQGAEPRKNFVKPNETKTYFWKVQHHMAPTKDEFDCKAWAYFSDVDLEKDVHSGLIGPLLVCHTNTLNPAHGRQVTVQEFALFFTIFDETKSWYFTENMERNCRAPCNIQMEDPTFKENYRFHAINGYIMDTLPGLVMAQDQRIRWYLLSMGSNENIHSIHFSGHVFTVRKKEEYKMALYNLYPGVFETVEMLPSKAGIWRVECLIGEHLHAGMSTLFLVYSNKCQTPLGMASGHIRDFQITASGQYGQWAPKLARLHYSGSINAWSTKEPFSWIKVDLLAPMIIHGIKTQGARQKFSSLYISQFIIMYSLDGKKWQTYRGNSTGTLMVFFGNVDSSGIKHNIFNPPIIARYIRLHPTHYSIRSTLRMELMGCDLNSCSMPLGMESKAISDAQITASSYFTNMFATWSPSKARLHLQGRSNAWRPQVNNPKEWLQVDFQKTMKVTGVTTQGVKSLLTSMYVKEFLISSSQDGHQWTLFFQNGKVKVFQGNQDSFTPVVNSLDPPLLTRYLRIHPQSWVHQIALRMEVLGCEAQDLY

[11] = biological target: T4, β2GPI exposed to cardiolipin (CL), …

| Protein | factor XII activation (chromogenic kallikrein assay) [1] | tPA-mediated activation of Plg (chromogenic Plg-activation assay) [2] | ability to activate tPA/plasminogen [3] | tPA-mediated conversion of Plg to Pls (substrate S-2251) [4] | tPA activating properties (Plg-activation assay) [5] | tPA activation [6] | stimulation of tPA activation [7] | tPA activating potential [8] | tPA activation, Max. Activation (%) (tPA-dependent plasminogen activation, % of standardized positive control) [8] | tPA-mediated conversion of Plg to Pls (substrate S-2251) [9] | tPA activation, Max. Activation (%) (tPA-dependent plasminogen activation, % of standardized positive control) [10] | generation of plasmin from tPA/plasminogen [11] |
| --- | --- | --- | --- | --- | --- | --- | --- | --- | --- | --- | --- | --- |
| factor XII (purified human factor XII from plasma) (protein) IPPWEAPKEHKYKAEEHTVVLTVTGEPCHFPFQYHRQLYHKCTHKGRPGPQPWCATTPNFDQDQRWGYCLEPKKVKDHCSKHSPCQKGGTCVNMPSGPHCLCPQHLTGNHCQKEKCFEPQLLRFFHKNEIWYRTEQAAVARCQCKGPDAHCQRLASQACRTNPCLHGGRCLEVEGHRLCHCPVGYTGAFCDVDTKASCYDGRGLSYRGLARTTLSGAPCQPWASEATYRNVTAEQARNWGLGGHAFCRNPDNDIRPWCFVLNRDRLSWEYCDLAQCQTPTQAAPPTPVSPRLHVPLMPAQPAPPKPQPTTRTPPQSQTPGALPAKREQPPSLTRNGPLSCGQRLRKSLSSMTRVVGGLVALRGAHPYIAALYWGHSFCAGSLIAPCWVLTAAHCLQDRPAPEDLTVVLGQERRNHSCEPCQTLAVRSYRLHEAFSPVSYQHDLALLRLQEDADGSCALLSPYVQPVCLPSGAARPSETTLCQVAGWGHQFEGAEEYASFLQEAQVPFLSLERCSAPDVHGSSILPGMLCAGFLEGGTDACQGDSGGPLVCEDQAAERRLTLQGIISWGSGCGDRNKPGVYTDVAYYLAWIREHTVS | Only gelatin kept at 37 °C activated factor XII |  |  |  |  |  |  |  |  |  |  |  |
| tissue-type plasminogen activator (tPA) (protein) SYQVICRDEKTQMIYQQHQSWLRPVLRSNRVEYCWCNSGRAQCHSVPVKSCSEPRCFNGGTCQQALYFSDFVCQCPEGFAGKCCEIDTRATCYEDQGISYRGTWSTAESGAECTNWNSSALAQKPYSGRRPDAIRLGLGNHNYCRNPDRDSKPWCYVFKAGKYSSEFCSTPACSEGNSDCYFGNGSAYRGTHSLTESGASCLPWNSMILIGKVYTAQNPSAQALGLGKHNYCRNPDGDAKPWCHVLKNRRLTWEYCDVPSCSTCGLRQYSQPQFRIKGGLFADIASHPWQAAIFAKHRRSPGERFLCGGILISSCWILSAAHCFQERFPPHHLTVILGRTYRVVPGEEEQKFEVEKYIVHKEFDDDTYDNDIALLQLKSDSSRCAQESSVVRTVCLPPADLQLPDWTECELSGYGKHEALSPFYSERLKEAHVRLYPSSRCTSQHLLNRTVTDNMLCAGDTRSGGPQANLHDACQGDSGGPLVCLNDGRMTLVGIISWGLGCGQKDVPGVYTKVTNYLDWIRDNMRP |  | Centrifugation had no effect on the stimulatory effect of Hb-AGE and amyloid γ-globulins on tPA-mediated activation of Plg | Alkylation of β2gpi results in amyloid-like properties when the ability to activate tPA/plasminogen is considered | Recombinant β2GPI, but not β2GPI purified from fresh plasma stimulate tPA-mediated conversion of Plg to Pls | the absence of tPA activating properties in 100 µg ml^-1 endostatin | a potent activator of tPA was obtained | also native MSA enhanced ThT fluorescence to some extent, but this was not reflected by stimulation of tPA activation | at high glucagon concentration, also native glucagon had some tPA activating potential | 11.2 | Recombinant β2GPI, but not β2GPI purified from fresh plasma stimulate tPA-mediated conversion of Plg to Pls | 4.22 | Generation of plasmin from tPA/plasminogen is accelerated when β2gpi is exposed to cardiolipin (CL-β2gpi) |
